Where a chain is given by its changes, count along the chain named.
Legend:
Experiment in all cases: co-IP; HEK293 cells co-transfected with HA-AP2M1 and myc-NCKX2-loop variants; lysate (50 mM Tris-Cl pH 7.4, 150 mM NaCl, 1 mM EDTA, 0.5% Triton X-100) incubated with anti-c-myc agarose overnight at 4°C; eluted with c-myc peptide; anti-HA blot, densitometry, n = 5
Conditions in all cases: partners not purified
[1] = molecular target: T1, c-myc-tagged cytoplasmic loop of NCKX2 (myc-NCKX2-loop), wild type (rat, UniProt O54701-1 288-478)
T1 construct: K+-dependent Na+/Ca2+ exchanger 2 (NCKX2), rat (NM_031743.2; O54701), cytoplasmic loop region, amino acids 288-478, in pcDNA3.1(+); also called WT; source: HEK293, transfected (calcium phosphate), in lysate; not shown: c-myc, N-terminal, kept
T1 sequence (looked up): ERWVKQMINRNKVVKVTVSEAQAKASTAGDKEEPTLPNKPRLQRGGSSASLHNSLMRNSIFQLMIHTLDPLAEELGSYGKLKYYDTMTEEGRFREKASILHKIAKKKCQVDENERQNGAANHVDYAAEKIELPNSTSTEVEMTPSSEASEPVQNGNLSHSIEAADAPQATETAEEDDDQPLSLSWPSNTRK

[2] = molecular target: T2, c-myc-tagged cytoplasmic loop of NCKX2, phosphomimetic mutant Y365E (rat, UniProt O54701-1 288-478, Y365E)
T2 construct: K+-dependent Na+/Ca2+ exchanger 2 (NCKX2), rat (NM_031743.2; O54701), cytoplasmic loop region, amino acids 288-478, with Y365E; also called myc-NCKX2-loop Y365E; source: HEK293, transfected (calcium phosphate), in lysate; not shown: c-myc, N-terminal, kept
T2 sequence (looked up): T1 sequence (looked up) with Y78E

[3] = molecular target: T3, c-myc-tagged cytoplasmic loop of NCKX2, Y371A mutant (rat, UniProt O54701-1 288-478, Y371A)
T3 construct: K+-dependent Na+/Ca2+ exchanger 2 (NCKX2), rat (NM_031743.2; O54701), cytoplasmic loop region, amino acids 288-478, with Y371A; also called myc-NCKX2-loop Y371A; source: HEK293, transfected (calcium phosphate), in lysate; not shown: c-myc, N-terminal, kept
T3 sequence (looked up): T1 sequence (looked up) with Y84A

amount of coimmunoprecipitated HA-AP2M1 [1]: 36.9
amount of coimmunoprecipitated HA-AP2M1 [2]: 7.83
amount of coimmunoprecipitated HA-AP2M1 [3]: 41.6
B1: HA-tagged AP2M1 (μ subunit of adaptor protein complex 2) (natural protein, UniProt P84092 1-435, looked up)
chain: MIGGLFIYNHKGEVLISRVYRDDIGRNAVDAFRVNVIHARQQVRSPVTNIARTSFFHVKRSNIWLAAVTKQNVNAAMVFEFLYKMCDVMAAYFGKISEENIKNNFVLIYELLDEILDFGYPQNSETGALKTFITQQGIKSQHQTKEEQSQITSQVTGQIGWRREGIKYRRNELFLDVLESVNLLMSPQGQVLSAHVSGRVVMKSYLSGMPECKFGMNDKIVIEKQGKGTADETSKSGKQSIAIDDCTFHQCVRLSKFDSERSISFIPPDGEFELMRYRTTKDIILPFRVIPLVREVGRTKLEVKVVIKSNFKPSLLAQKIEVRIPTPLNTSGVQVICMKGKAKYKASENAIVWKIKRMAGMKESQISAEIELLPTNDKKKWARPPISMNFEVPFAPSGLKVRYLKVFEPKLNYSDHDVIKWVRYIGRSGIYETRC
notes: AP2M1, μ subunit of adaptor protein complex 2 (NM_053837.1; P84092), cloned into pcDNA3; gift from Dr. Ryan (Kim and Ryan, 2009); also called HA-AP2M1; μ subunit of AP-2; source: HEK293, transfected (calcium phosphate), in lysate

From paper PMC3576620, “Endocytosis of somatodendritic NCKX2 is regulated by Src family kinase-dependent tyrosine phosphorylation” (Frontiers in Cellular Neuroscience, 2013)
